The target in experiment [1] is T1, IL-2R CD122-CD132 on Jurkat-PD1+CD122+ cells (UniProt P14784 27-551; P31785 23-369).
T1 sequence (looked up) 1: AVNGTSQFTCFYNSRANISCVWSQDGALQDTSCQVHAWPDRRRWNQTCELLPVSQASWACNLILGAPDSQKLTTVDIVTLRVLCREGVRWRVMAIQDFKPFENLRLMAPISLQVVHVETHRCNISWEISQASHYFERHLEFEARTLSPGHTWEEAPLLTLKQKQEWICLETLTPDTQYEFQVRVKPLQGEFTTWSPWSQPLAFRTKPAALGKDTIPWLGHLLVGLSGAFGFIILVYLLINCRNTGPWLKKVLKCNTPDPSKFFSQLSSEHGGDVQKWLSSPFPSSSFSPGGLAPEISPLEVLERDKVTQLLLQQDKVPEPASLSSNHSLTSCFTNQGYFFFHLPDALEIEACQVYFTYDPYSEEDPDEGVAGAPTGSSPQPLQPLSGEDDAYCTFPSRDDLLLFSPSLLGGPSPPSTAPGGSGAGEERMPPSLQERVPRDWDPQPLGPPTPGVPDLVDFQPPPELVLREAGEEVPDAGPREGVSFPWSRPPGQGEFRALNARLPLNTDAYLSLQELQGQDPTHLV
T1 sequence (looked up) 2: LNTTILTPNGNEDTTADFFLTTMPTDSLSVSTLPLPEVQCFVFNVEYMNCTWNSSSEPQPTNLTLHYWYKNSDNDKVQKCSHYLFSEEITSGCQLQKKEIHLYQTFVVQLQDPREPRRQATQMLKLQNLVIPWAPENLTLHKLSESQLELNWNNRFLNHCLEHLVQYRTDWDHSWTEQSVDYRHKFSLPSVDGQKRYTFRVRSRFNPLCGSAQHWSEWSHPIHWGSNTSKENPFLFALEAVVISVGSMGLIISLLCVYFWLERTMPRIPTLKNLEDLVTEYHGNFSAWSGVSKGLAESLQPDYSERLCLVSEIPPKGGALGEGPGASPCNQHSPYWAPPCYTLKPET
The experiment in a line: cell-based or functional assay.

Experiment [2] deals with T2, hPD-1 (ECD-His, produced in house) (human, UniProt Q15116 25-170).
T2 construct: extracellular domain; also called coated hPD-1
The experiment in a line: binding ELISA. The method, then: 60 nM of hPD-1 (ECD-His, produced in house) was coated on a Maxisorp plate (Nunc) overnight at 4° C. and blocked with 5% BSA in PBS. […] Absorbance signal after adding TMB was read with a plate reader (Spectramax ID3) at 450 nm. EC50 values were determined by blotting absorbance against concentration (Graphpad Prism, sigmoidal curve fit, 4 PL, X-axis is log).

T2 sequence (Q15116 25-170): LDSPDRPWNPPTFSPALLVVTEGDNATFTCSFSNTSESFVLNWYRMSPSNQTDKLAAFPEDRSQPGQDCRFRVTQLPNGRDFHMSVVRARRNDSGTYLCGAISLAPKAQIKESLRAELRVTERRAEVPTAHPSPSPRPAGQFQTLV

B1: PXU588 (bispecific antibody, human IgG1, kappa, L234A L235A)
heavy 1: EVQLLESGGGLVQPGGSLRLSCAASGFTFSINAMTWVRQAPGKGLEWVSTISGSGFSTYYADSLKGRFTISRDNSKNTLYLQMNSLRAEDTAVYYCAKEVYGDYWGQGTLVTVSSASVAAPSVFIFPPSDEQLKSGTASVVCLLNNFYPREAKVQWKVDNALQSGNSQESVTEQDSKDSTYSLSSTLTLSKADYEKHKVYACEVTHQGLSSPVTKSFNRGECDKTHTCPPCPAPEAAGGPSVFLFPPKPKDTLMISRTPEVTCVVVDVSHEDPEVKFNWYVDGVEVHNAKTKPREEQYNSTYRVVSVLTVLHQDWLNGKEYKCKVSNKALAAPIEKTISKAKGQPREPQVYTLPPSREEMTKNQVSLTCLVKGFYPSDIAVEWESNGQPENNYKTTPPVLDSDGSFFLTSKLTVDKSRWQQGNVFSCSVMHEALHNHYTQKSLSLSPGK
light 1: RSVLTQPPSASGTPGQRVSISCSGASSNIGSSSVFWYQQLPGTAPKLLIYSNNQRPSGVPDRFSGSKSGTSASLAISGLRSEDEADYYCAAWDDSLSIWVFGGGTKLTVLSSASTKGPSVFPLAPSSKSTSGGTAALGCLVKDYFPEPVTVSWNSGALTSGVHTFPAVLQSSGLYSLSSVVTVPSSSLGTQTYICNVNHKPSNTKVDKRVEPKSC
heavy 2: EVQLVQSGAEVKKPGESLKISCKGSGYAFTNYLIEWVRQMPGKGLEWMGVINPGSGGTNYNEKFKGQVTISADKSISTAYLQWSSLKASDTAMYYCARWRGEGYYAYFDVWGQGTTVTVSSASTKGPSVFPLAPSSKSTSGGTAALGCLVKDYFPEPVTVSWNSGALTSGVHTFPAVLQSSGLYSLSSVVTVPSSSLGTQTYICNVNHKPSNTKVDKRVEPKSCDKTHTCPPCPAPEAAGGPSVFLFPPKPKDTLMISRTPEVTCVVVDVSHEDPEVKFNWYVDGVEVHNAKTKPREEQYNSTYRVVSVLTVLHQDWLNGKEYKCKVSNKALAAPIEKTISKAKGQPREPQVYTLPPSREEMTKNQVSLYCLVKGFYPSDIAVEWESNGQPENNYKTTPPVLDSDGSFFLYSKLTVDKSRWQQGNVFSCSVMHEALHNHYTQKSLSLSPGK
light 2: not shown
notes: also called IgG CrossMab 21A08A p2 x QTY065
As for B1, the “EC50 value for pSTAT5 induction, Jurkat-PD-1+CD122+ cells” value in experiment [1] was determined as 5.37 nM. For the same molecule, in experiment [2], the binding result is given as “no binding”.

These data come from US20260207767A1 (ANAVEON, published 2026).
